How the values were obtained:
Type in all cases: biochemical
[1] = Spectrophotometric enzymatic assay: cleaving activity, production of vanillin from coniferyl alcohol at 349 nm; settings: freeze-dried cell free extract incl. buffer salts; vanillin from coniferyl alcohol
Procedure: Stock solution 200× of coniferyl alcohol (90 mg) was prepared in ethanol (5 mL) and stored at −20° C. From this, a new stock solution 20× of coniferyl alcohol (10 mM) was freshly prepared by 1:10 dilution in Glycine-NaOH (50 mM, pH 9.0). A cuvette containing 0.750 mL Glycine-NaOH (50 mM, pH 9.0) and 0.05 mL of the substrate 20× stock was pre-warmed at 25° C. for 1.5 mins. Then, the reaction was initiated by the addition of 0.2 mL of the enzyme sample. The cleaving […] activity was measured spectrophotometrically following the production of vanillin at 349 nm (ε349=26.7 mM^−1cm^−1 experimentally determined). One unit of activity (U) is defined as the amount of enzyme required to produce 1 μmol of vanillin per min. Agilent Cary 60 UV-Vis Spectrophotometer was used for all the measurements.
Searching for alternative novel alkene cleavage oxygenases (COs) catalysing the formation of vanillin from coniferyl alcohol was performed. A set of 27 sequences and 10 COs from different branches of the phylogenetic tree were selected, named CO-02-11. Two additional enzymes were included, which are located in different clusters of the phylogenetic tree: Lignostillbene dioxygenase from Pseudomonas brassicaceraum (PbLSD, PDB: 5V2D) and aromatic dioxygenase (Ado, CO-01) from Thermothelomyces thermophilus (GenBank ID: XP_003665585). The proteins were recombinantly expressed in E. coli BL21(DE3), following the same protocol developed for IECO. […] Putative COs were screened by spectrophotometric assay, monitoring the formation of 3a upon 2a cleavage. From a set of twelve COs, four positive hits, namely CO-01, CO-03, CO-06 and CO-07 were found. Positive variants were tested in the one pot cascade and compared them with IECO In agreement with the spectrophotometric screening, all four COs converted eugenol 1a to vanillin 3a (Table 8). The first step of the cascade is efficiently performed by EUGO, and the substrate is completely consumed. […] Overall, 70±3% conversion of 1a to vanillin 3a was achieved.

[2] = Biotransformation of isoeugenol to vanillin: pH and solvent screening
Procedure: Stock solution of rac-isoeugenol (100 mM) was prepared in DMSO and stored at 4° C. Each reaction mixtures (1 mL) were set up as follows: rac-isoeugenol (50 μL, final concentration 5 mM) was diluted in various buffers (100 mM, pH 7.0-10.5) in 4 mL glass vials, together with FeSO4 (0.5 mM) and DMSO (150 μL; final concentration including the part from substrate stock: 20% v/v). The reaction was initiated by the addition of IECO (cell free extract 1 mg/mL). Wild type E. coli BL21 (DE3) was used as negative control. The reaction was incubated for 24 hours at 30° C. and 120 rpm (rotary shaker). To improve the oxygenation, the vials were placed horizontally. The reaction was quenched with methanol (2 vol. equiv.), centrifuged at 20238 g for 5-10 mins and analysed by HPLC.
Stock solutions of rac-isoeugenol (100 mM) were prepared in different solvents and stored in the dark at 4° C. Each reaction mixtures (1 mL) were set up as follows: ra-isoeugenol (50 μL, final concentration 5 mM) was diluted in Glycine-NaOH (100 mM, pH 9.5) in 4 mL glass vials, together with FeSO4 (0.5 mM) and the respective cosolvent (0, 50 or 150 μL; final content of cosolvent including the part from the substrate stock: 5, 10 and 20% v/v). The reaction was initiated by the addition of IECO (cell free extract 1 mg/mL). […] The reaction was quenched with methanol (2 vol. equiv.), centrifuged at 20238 g and analysed by HPLC.

[3] = Biotransformation of coniferyl alcohol to vanillin catalysed by IECO (5 mM); settings: 5 mM 2a; for Consumption of 2a / Conversion of 2a to 3a (%) / Conversion of 2a to 5a (%) / Reaction composition at 24 hours (%) 2a / Reaction composition at 24 hours (%) 3a / Reaction composition at 24 hours (%) 5a: pH 9.0
Procedure: 180 mg of coniferyl alcohol were weighted and dissolved in 10 mL ethanol and stored at −20° C. (stock 100 mM). The reaction mixtures (0.5 mL) were set up in 1.5 mL glass vials as follows: […] (50 mM, pH 9.0) together with sodium ascorbate (1 mM), FeSO4 (1 mM) and bovine liver catalase (Sigma C40, 0-10 mg/mL). The reaction was initiated by the addition of coniferyl alcohol stock (0.025 mL, final concentration 5 mM), then it was incubated for 24 hours at 30° C. and 120 rpm (rotary shaker). Note that the reaction contained 5% v/v ethanol deriving from the substrate stock. To improve the oxygenation, the vials were placed horizontally. At certain time points, reaction samples were taken and quenched with methanol (2 vol. equivalents). The mixture was centrifuged for 5-10 mins at 20238 g. Then supernatant was finally transferred in a HPLC vial for analysis.

[4] = IECO CFE Fresh 1 mg/mL, 24 h, non-optimised
[5] = IECO CFE Fresh 2 mg/mL, 24 h, non-optimised
[6] = IECO CFE Stored at −20° 2 mg/mL, 24 h, non-optimised
[7] = IECO CFE Stored at −20° C. 3 mg/mL, 24 h, non-optimised
[8] = IECO fresh CFE 1 mg/mL, catalase 0 mg/mL
[9] = IECO fresh CFE 1 mg/mL, catalase 2 mg/mL
[10] = IECO fresh CFE 1 mg/mL, catalase 10 mg/mL
[11] = IECO fresh CFE 2 mg/mL, catalase 0 mg/mL
[12] = IECO fresh CFE 2 mg/mL, catalase 2 mg/mL
[13] = IECO fresh CFE 2 mg/mL, catalase 10 mg/mL
[14] = IECO fresh CFE 4 mg/mL, catalase 0 mg/mL
[15] = IECO fresh CFE 4 mg/mL, catalase 2 mg/mL
[16] = IECO fresh CFE 4 mg/mL, catalase 10 mg/mL

B1: IECO: isoeugenol cleavage oxygenase from Pseudomonas nitroreducens (GenBank: ACP17973), SEQ ID NO: 24 (protein, listed as Pseudomonas nitroreducens)
chain: MARLNRNDPQLVGTLLPTRIEADLFDLEVDGEIPKSINGTFYRNTPEPQVTPQKFHTFIDGDGMASAFHFEDGHVDFISRWVKTARFTAERLARKSLFGMYRNPYTDDTSVKGLDRTVANTSIISHHGKVLAVKEDGLPYELDPRTLETRGRFDYDGQVTSQTHTAHPKYDPETGDLLFFGSAAKGEATPDMAYYIVDKHGKVTHETWFEQPYGAFMHDFAITRNWSIFPIMPATNSLSRLKAKQPIYMWEPELGSYIGVLPRRGQGSQIRWLKAPALWVFHVVNAWEVGTKIYIDLMESEILPFPFPNSQNQPFAPEKAVPRLTRWEIDLDSSSDEIKRTRLHDFFAEMPIMDFRFALQCNRYGFMGVDDPRKPLAHQQAEKIFAYNSLGIWDNHRGDYDLWYSGEASAAQEPAFVPRSPTAAEGDGYLLTVVGRLDENRSDLVILDTQDIQSGPVATIKLPFRLRAALHGCWVPRP
Which “Specific Activity (mU/mg of FD-CFE)” value [1] does the source give for B1 here?
The value was 2.8 mU/mg.

And the “pH optimum of activity toward isoeugenol” value ([2]; rac-isoeugenol 5 mM, buffers pH 7.0-10.5)?
Its value is 9.0.

And the “cosolvent tolerance, activity toward isoeugenol” value ([2]; solvent screening 5, 10 and 20% v/v)?
The value was “tolerates a panel of cosolvents, with a preference for ethanol and DMSO”.

And the vanillin afforded ([3]; IECO 4 mg CFE/mL in the presence of catalase, 24 h)?
Its vanillin afforded is 3.6 ± 0.6 mM.

What about the “Consumption of 2a” value [3, 4] of the same molecule?
Its value is 24%.

What about the “Conversion of 2a to 3a (%)” value [3, 4] of the same molecule?
The value was 9%.

And the “Consumption of 2a” value [3, 5]?
Its value is 45%.

And the “Conversion of 2a to 3a (%)” value [3, 5]?
The value was 17%.

What about the “Consumption of 2a” value [3, 6] of the same molecule?
Its value is 12%.

What about the “Conversion of 2a to 3a (%)” value [3, 6] of the same molecule?
The value was 4%.

And the “Conversion of 2a to 5a (%)” value [3, 6]?
Its value is 1%.

What about the “Consumption of 2a” value [3, 7] of the same molecule?
The value was 18%.

What about the “Conversion of 2a to 3a (%)” value [3, 7] of the same molecule?
Its value is 5%.

And the “Conversion of 2a to 5a (%)” value [3, 7]?
The value was 13%.

What about the “Reaction composition at 24 hours (%) 2a” value [3, 8] of the same molecule?
The value was 46 ± 3%.

And the “Reaction composition at 24 hours (%) 3a” value [3, 8]?
Its value is 51 ± 3%.

What about the “Reaction composition at 24 hours (%) 5a” value [3, 8] of the same molecule?
The value was 3 ± 1%.

And the “Conversion of 2a to 3a (%)” value ([3]; IECO fresh CFE 1 mg/mL, catalase 0 mg/mL, 24 h)?
The value was 38 ± 4%.

And the “Reaction composition at 24 hours (%) 2a” value [3, 9]?
The value was 41 ± 6%.

And the “Reaction composition at 24 hours (%) 3a” value [3, 9]?
The value was 58 ± 6%.

What about the “Reaction composition at 24 hours (%) 5a” value [3, 9] of the same molecule?
The value was 1 ± 0.1%.

What about the “Conversion of 2a to 3a (%)” value ([3]; IECO fresh CFE 1 mg/mL, catalase 2 mg/mL, 24 h) of the same molecule?
The value was 44 ± 5%.

What about the “Reaction composition at 24 hours (%) 2a” value [3, 10] of the same molecule?
Its value is 41 ± 3%.

And the “Reaction composition at 24 hours (%) 3a” value [3, 10]?
The value was 58 ± 1%.

And the “Reaction composition at 24 hours (%) 5a” value [3, 10]?
Its value is 1 ± 0.1%.

And the “Conversion of 2a to 3a (%)” value ([3]; IECO fresh CFE 1 mg/mL, catalase 10 mg/mL, 24 h)?
The value was 45 ± 3%.

What about the “Reaction composition at 24 hours (%) 2a” value [3, 11] of the same molecule?
The value was 25 ± 4%.

And the “Reaction composition at 24 hours (%) 3a” value [3, 11]?
The value was 71 ± 4%.

And the “Reaction composition at 24 hours (%) 5a” value [3, 11]?
The value was 5 ± 1%.

And the “Conversion of 2a to 3a (%)” value ([3]; IECO fresh CFE 2 mg/mL, catalase 0 mg/mL, 24 h)?
The value was 53 ± 3%.

And the “Reaction composition at 24 hours (%) 2a” value [3, 12]?
Its value is 27 ± 3%.

And the “Reaction composition at 24 hours (%) 3a” value [3, 12]?
The value was 72 ± 3%.

What about the “Reaction composition at 24 hours (%) 5a” value [3, 12] of the same molecule?
Its value is 1 ± 0.3%.

What about the “Conversion of 2a to 3a (%)” value ([3]; IECO fresh CFE 2 mg/mL, catalase 2 mg/mL, 24 h) of the same molecule?
Its value is 58 ± 3%.

And the “Reaction composition at 24 hours (%) 2a” value [3, 13]?
Its value is 22 ± 4%.

What about the “Reaction composition at 24 hours (%) 3a” value [3, 13] of the same molecule?
Its value is 77 ± 4%.

What about the “Reaction composition at 24 hours (%) 5a” value [3, 13] of the same molecule?
The value was 1 ± 0.1%.

And the “Conversion of 2a to 3a (%)” value ([3]; IECO fresh CFE 2 mg/mL, catalase 10 mg/mL, 24 h)?
The value was 59±3%.

And the “Reaction composition at 24 hours (%) 2a” value [3, 14]?
Its value is 9.1 ± 3%.

What about the “Reaction composition at 24 hours (%) 3a” value [3, 14] of the same molecule?
The value was 82 ± 5%.

And the “Reaction composition at 24 hours (%) 5a” value [3, 14]?
The value was 9 ± 4%.

And the “Conversion of 2a to 3a (%)” value ([3]; IECO fresh CFE 4 mg/mL, catalase 0 mg/mL, 24 h)?
Its value is 56 ± 10%.

And the “Reaction composition at 24 hours (%) 2a” value [3, 15]?
Its value is 11 ± 3%.

What about the “Reaction composition at 24 hours (%) 3a” value [3, 15] of the same molecule?
The value was 84 ± 5%.

What about the “Reaction composition at 24 hours (%) 5a” value [3, 15] of the same molecule?
The value was 5 ± 4%.

And the “Conversion of 2a to 3a (%)” value ([3]; IECO fresh CFE 4 mg/mL, catalase 2 mg/mL, 24 h)?
Its value is 62 ± 10%.

What about the “Reaction composition at 24 hours (%) 2a” value [3, 16] of the same molecule?
Its value is 13 ± 1%.

And the “Reaction composition at 24 hours (%) 3a” value [3, 16]?
Its value is 86 ± 13%.

What about the “Reaction composition at 24 hours (%) 5a” value [3, 16] of the same molecule?
Its value is 1 ± 0.1%.
